Data from patent US20080182978A1, “ANTI-NGF ANTIBODIES AND METHODS USING SAME” (RINAT NEUROSCIENCE CORP, priority 2002, published 2008).
Entries after “also recorded” stand apart in the source; their conditions may differ.

Assays:
Format in all cases: cell-based
NT3 = target: T1, NT3 (Homo sapiens, UniProt P20783); test: Mouse E17/18 trigeminal neuron survival assay, NT3; conditions: saturating NT3; antibody up to 200 nM; 48 hours
T1 sequence (P20783 139-257): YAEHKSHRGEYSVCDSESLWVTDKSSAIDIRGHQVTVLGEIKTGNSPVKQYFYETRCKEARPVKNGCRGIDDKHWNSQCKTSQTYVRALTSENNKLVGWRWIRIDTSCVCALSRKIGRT
Protocol: The ability of antibody E3 to specifically block NGF activity was evaluated by measurement of the capacity of the antibody to inhibit survival of mouse E17/18 trigeminal neurons in vitro in the presence of saturating concentrations of NGF, the NGF-related neurotrophin NT3, or the NGF-unrelated neurotrophic factor, macrophage stimulating protein (MSP). The survival of mouse E17/18 trigeminal neurons is a sensitive assay to evaluate the NGF-blocking activity of anti-NGF antagonist antibodies because NGF is required to support survival of these neurons at higher concentrations than the level of NGF required to support survival of E13.5 TG neurons).
(§1) The survival assay was conducted as follows: time mated pregnant Swiss Webster female mice were euthanised by CO2 inhalation. The uterine horns were removed and the embryos (at embryonic day 17 or 18) were extracted and decapitated. The trigeminal and nodose ganglia were dissected and cleaned. The ganglia were then trypsinised, mechanically dissociated and plated at a density of 100-300 cells per well in defined, serum-free medium in 4-well plates (Greiner) coated with poly-L-ornithine and laminin.
E17/18 trigeminal neurons were grown either without added neurotrophic factors (negative control) or in the presence of saturating concentrations of human NGF (400 pM and 15 pM) (positive control); NT3 (400 pM); or MSP (600 pM). […]

LIF = LIF (Homo sapiens, UniProt P15018); test: Mouse E17 nodose neuron survival assay, LIF; conditions: LIF 2.5 nM; antibody up to 200 nM; 48 hours
Protocol: (§2) The ability of antibody E3 to specifically block NGF activity was also evaluated by measurement of the capacity of the antibody to inhibit survival of mouse nodose E17 neurons in the presence of saturating concentrations of BDNF or NT4/5. Survival of nodose neurons is supported by BDNF or NT4/5; therefore, survival of these neurons is a sensitive assay to evaluate the BDNF or NT4/5-blocking ability of the anti-NGF antagonist antibody.
as §1
(§3) E17 nodose neurons were grown either in the absence of added neurotrophic factors (negative control), or with saturating concentrations of BDNF (400 pM) (positive control) or NT4/5 (400 pM) or NGF unrelated growth factor […]. High concentrations of neurotrophins were used, as the goal of this experiment was to test specificity of the antibodies. […]

NT4/5 = target: T2, NT4/5 (Homo sapiens, UniProt P34130); test: Mouse E17 nodose neuron survival assay, NT4/5; conditions: NT4/5 400 pM; antibody up to 200 nM; 48 hours
T2 sequence (P34130 81-210): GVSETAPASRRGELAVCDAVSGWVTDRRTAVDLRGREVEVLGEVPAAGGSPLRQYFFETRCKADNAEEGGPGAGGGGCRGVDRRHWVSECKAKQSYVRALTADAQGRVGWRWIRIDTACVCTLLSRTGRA
Protocol: as §2, §1, §3

BDNF = target: T3, BDNF (Homo sapiens, UniProt P23560); test: Mouse E17 nodose neuron survival assay, BDNF; conditions: BDNF 400 pM; antibody up to 200 nM; 48 hours
T3 sequence (P23560 129-247): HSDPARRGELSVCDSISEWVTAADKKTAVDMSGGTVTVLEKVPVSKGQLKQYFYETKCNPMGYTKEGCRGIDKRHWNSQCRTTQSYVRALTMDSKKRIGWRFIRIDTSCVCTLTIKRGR
Protocol: as §2, §1, §3

Sequence of LIF (P15018 23-202, species assumed): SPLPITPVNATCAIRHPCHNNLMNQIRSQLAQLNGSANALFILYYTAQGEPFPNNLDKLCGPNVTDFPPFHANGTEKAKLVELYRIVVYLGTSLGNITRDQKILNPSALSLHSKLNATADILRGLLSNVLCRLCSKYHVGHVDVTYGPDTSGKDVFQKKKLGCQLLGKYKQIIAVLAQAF

B1: E3: humanized, affinity matured anti-NGF antagonist antibody; variable regions SEQ ID NO:1 and 2; human IgG2a (A330P331 to S330S331), kappa (antibody, V domains shown)
VH: QVQLQESGPGLVKPSETLSLTCTVSGFSLIGYDLNWIRQPPGKGLEWIGIIWGDGTTDYNSAVKSRVTISKDTSKNQFSLKLSSVTAADTAVYYCARGGYWYATSYYFDYWGQGTLVTVS
VL: DIQMTQSPSSLSASVGDRVTITCRASQSISNNLNWYQQKPGKAPKLLIYYTSRFHSGVPSRFSGSGSGTDFTFTISSLQPEDIATYYCQQEHTLPYTFGQGTKLEIKRT
modifications: human IgG2a constant (A330S/P331S) and kappa constant missing
- survival of E17/18 trigeminal neurons promoted by NT3 (NT3): had no effect; also recorded: did not inhibit
- survival of E17 nodose neurons promoted by LIF (LIF): had no effect; also recorded: did not inhibit
- survival of E17 nodose neurons promoted by NT4/5 (NT4/5): had no effect; also recorded: did not inhibit
- survival of E17 nodose neurons promoted by BDNF (BDNF): had no effect; also recorded: did not inhibit
